This note sets out measurements from publication PMC10726430 (Cell metabolism, 2023).

The series deals with the molecule itself. Description: native gel or EMSA. (In general: Mobility shift assays separate free from complexed probe on a gel.)

B1: NSUN2-F1 (amino acid 1–767), recombinant NSUN2 protein (enzyme, human, UniProt Q08J23-1 1-767, looked up)
chain: MGRRSRGRRLQQQQRPEDAEDGAEGGGKRGEAGWEGGYPEIVKENKLFEHYYQELKIVPEGEWGQFMDALREPLPATLRITGYKSHAKEILHCLKNKYFKELEDLEVDGQKVEVPQPLSWYPEELAWHTNLSRKILRKSPHLEKFHQFLVSETESGNISRQEAVSMIPPLLLNVRPHHKILDMCAAPGSKTTQLIEMLHADMNVPFPEGFVIANDVDNKRCYLLVHQAKRLSSPCIMVVNHDASSIPRLQIDVDGRKEILFYDRILCDVPCSGDGTMRKNIDVWKKWTTLNSLQLHGLQLRIATRGAEQLAEGGRMVYSTCSLNPIEDEAVIASLLEKSEGALELADVSNELPGLKWMPGITQWKVMTKDGQWFTDWDAVPHSRHTQIRPTMFPPKDPEKLQAMHLERCLRILPHHQNTGGFFVAVLVKKSSMPWNKRQPKLQGKSAETRESTQLSPADLTEGKPTDPSKLESPSFTGTGDTEIAHATEDLENNGSKKDGVCGPPPSKKMKLFGFKEDPFVFIPEDDPLFPPIEKFYALDPSFPRMNLLTRTTEGKKRQLYMVSKELRNVLLNNSEKMKVINTGIKVWCRNNSGEEFDCAFRLAQEGIYTLYPFINSRIITVSMEDVKILLTQENPFFRKLSSETYSQAKDLAKGSIVLKYEPDSANPDALQCPIVLCGWRGKASIRTFVPKNERLHYLRMMGLEVLGEKKKEGVILTNESAASTGQPDNDVTEGQRAGEPNSPDAEEANSPDVTAGCDPAGVHPPR
B1: the binding result is recorded as “binds”.
